US20250066490A1, “ANTI-CD70 ANTIBODIES, CONJUGATES THEREOF AND METHODS OF USING THE SAME” (ProfoundBio US Co., priority 2021, published 2025)

How the values were obtained:
[1] = target: T1, mouse CD70 extra-cellular domain (ECD) (Mus musculus, UniProt O55237); experiment: Biolayer interferometry (BLI), mouse CD70; assay type: binding; conditions: for Response: *Response below range of quantification
T1 construct: human, rat, or mouse CD70 extra-cellular domain (ECD) linked to His tag; His tag; purchased ACRO systems
T1 sequence (O55237 45-195): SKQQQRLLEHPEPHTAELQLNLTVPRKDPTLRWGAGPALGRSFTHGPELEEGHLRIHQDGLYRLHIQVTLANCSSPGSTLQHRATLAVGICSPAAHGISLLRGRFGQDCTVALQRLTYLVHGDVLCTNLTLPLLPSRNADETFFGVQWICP
Description: Recombinant proteins consisting of human, rat, or mouse CD70 extra-cellular domain (ECD) linked to His tag was purchased (from ACRO systems). 69A7 and 2E7 (20 nM) were immobilized on anti-human IgG Fc biosensor tips (ForteBio). Binding assays using one concentration (100 nM) of recombinant protein in solution were performed using Octet RED (ForteBio). Association time was set at 180s and dissociation time was set at 300s. Binding affinity was calculated using ForteBio Data Acquisition 6.3 software. Affinity was derived by fitting the kinetic data to a 1:1 Langmuir binding model utilizing global fitting algorithms. […] Binding assays for 2E7 using multiple dilutions (from 200 nM down to 3.13 nM) of species' recombinant CD70 ECD proteins in solution were also performed using the same method.

[2] = system: Caki-1 cells; experiment: Internalization by FACS immune-fluorescence staining, Caki-1; assay type: cell-based, human
Description: (§1) Briefly, 2×10^5 cells were harvested from a tissue culture flask by treatment with 0.25% Trypsin/EDTA and then incubated with 10 μg/ml of the lead antibodies or control antibodies in FACS buffer (1×PBS with 0.1% BSA) for 30 mins at 4° C. The cells were washed at 4° C. to remove unbound antibodies and kept on ice or shifted to 37° C. At the set time points (0 h, 4 h, 24 h), cells were incubated with PE-conjugated anti human Fc (Abcam, Ab98596) for 30 mins at 4° C. and then analyzed by flow cytometry. The internalization ratio was calculated by subtracting the 37° C. MFI from the 4° C. MFI, and then compared with 4° C. MFI.
(§2) Four cell lines ([…]), Caki-1, Raji, MCF-7) were utilized in the internalization assay. Target (CD70) copy numbers were determined via the QIFIKIT (DAKO, K0078). Briefly, cells were labeled with a primary mouse monoclonal antibody against CD70. Cells, Set-up beads, Calibration beads (from the kit) were then labeled in parallel with a fluorescein-conjugated anti-mouse secondary antibody. The fluorescence is correlated with the number of bound primary antibody molecules on the cells and on the beads. Samples were subsequently analyzed on the flow cytometer and copy number determined based on the calibration curve (Table 11). For internalization assay, 3×10^5 cells were incubated at 4° C. for 30 min with 10 µg/ml 2E7 in FACS buffer (1×PBS containing 0.1% BSA). Cells were washed at 4° C. to remove unbound material and kept on ice or shifted to 37° C. for different lengths of time. At progressive timepoints ([…], 0.5, 1, 2, 3, 4 hr) cells were stained with PE-conjugated anti-human Fc for 30 min at 4° C. and analyzed by flow cytometry. Internalization rate were calculated by subtracting the mean fluorescence intensity (MFI) of cell surface-bound antibody at 37° C. at each time point from the MFI of cell surface-bound antibody at 4° C. at time 0, then divided by the MFI of the cell surface-bound antibody at 4° C. at time 0.

[3] = system: 786-O cells; experiment: Internalization by FACS immune-fluorescence staining, 786-O; assay type: cell-based, human
Description: as §1, §2

B1: 2E7: anti-CD70 antibody clone, VH SEQ 7 and VL SEQ 8; tested as scFv and full human IgG1/kappa (antibody, V domains shown)
VH: QVQLQESGPGLVKPSETLSLTCTVSGGSVSSDYYYWSWIRQPPGKGLEWLGYIYYSGSTNYNPSLKSRVTISVDTSKNQFSLKLRSVTTADTAVYYCARGDGDFLGVCFDYWGQGTLVTVSS
VL: EIVLTQSPATLSLSPGERATLSCRASQSVSSYLAWYQQKPGQAPRLLIFDASNRATGIPARFSGSGSGTDFTLTISSLEPEDFAVYYCQQRSNWPLTFGGGTKVEIK
modifications: Synthetic 2E7 VH amino acid sequence; Synthetic 2E7 VL amino acid sequence
notes: tested as scFv and full human IgG1/kappa
In the case of B1, the Response ([1]; MOUSE CD70 3.13 nM) is reported as “*−6.014E−03”, the Response ([1]; MOUSE CD70 6.25 nM) is reported as “*−5.879E−03” and the Response ([1]; MOUSE CD70 12.5 nM) is reported as “*−1.516E−03”. For the same molecule, the Response ([1]; MOUSE CD70 25 nM) was “*−3.009E−03”, the Response ([1]; MOUSE CD70 50 nM) was “*0.0063” and the Response ([1]; MOUSE CD70 100 nM, dilution series) was “*0.0111”. For the same molecule, the Response ([1]; MOUSE CD70 200 nM) was “*0.0012”, the “ka” value ([1]; MOUSE CD70, multiple dilutions 200-3.13 nM, global fit, responses below range of quantification) was 117000 M⁻¹ s⁻¹ and the Response ([1]; MS CD70 100 nM, one concentration) was “*0.0045”. For the same molecule, the “ka” value ([1]; MS CD70 100 nM, one concentration, response below range of quantification) was 3250 M⁻¹ s⁻¹, the “cross-reactivity to mouse CD70” value ([1]; multiple dilutions, Table 10) was “no cross-reactivity” and the “cross-reactivity to mouse CD70” value ([1]; one concentration (100 nM), Table 9) was “no cross-reactivity”. For the same molecule, the “absolute amount of antibody internalized into cell vs parent antibody 69A7” value ([2]; Caki-1, based on the cell binding affinity) was “higher absolute amount of antibody internalized into cell than the parent antibody 69A7”, the “internalization, time course” value ([2]; Caki-1, up to 4 hr, FIG. 13) was “rapid internalization” and the “absolute amount of antibody internalized into cell vs parent antibody 69A7” value ([3]; based on the cell binding affinity) was “higher absolute amount of antibody internalized into cell than the parent antibody 69A7”. For the same molecule, the “internalization, time course” value ([3]; up to 4 hr, FIG. 13) was “rapid internalization”.
